Substitutions are numbered along the chain they refer to.
T1: Human PTK7 Protein, His Tag, Acro Biosystems (human, UniProt Q13308 31-704)
T1 construct: Bought recombinant protein; also called CCK4; not shown: His tag
T1 sequence: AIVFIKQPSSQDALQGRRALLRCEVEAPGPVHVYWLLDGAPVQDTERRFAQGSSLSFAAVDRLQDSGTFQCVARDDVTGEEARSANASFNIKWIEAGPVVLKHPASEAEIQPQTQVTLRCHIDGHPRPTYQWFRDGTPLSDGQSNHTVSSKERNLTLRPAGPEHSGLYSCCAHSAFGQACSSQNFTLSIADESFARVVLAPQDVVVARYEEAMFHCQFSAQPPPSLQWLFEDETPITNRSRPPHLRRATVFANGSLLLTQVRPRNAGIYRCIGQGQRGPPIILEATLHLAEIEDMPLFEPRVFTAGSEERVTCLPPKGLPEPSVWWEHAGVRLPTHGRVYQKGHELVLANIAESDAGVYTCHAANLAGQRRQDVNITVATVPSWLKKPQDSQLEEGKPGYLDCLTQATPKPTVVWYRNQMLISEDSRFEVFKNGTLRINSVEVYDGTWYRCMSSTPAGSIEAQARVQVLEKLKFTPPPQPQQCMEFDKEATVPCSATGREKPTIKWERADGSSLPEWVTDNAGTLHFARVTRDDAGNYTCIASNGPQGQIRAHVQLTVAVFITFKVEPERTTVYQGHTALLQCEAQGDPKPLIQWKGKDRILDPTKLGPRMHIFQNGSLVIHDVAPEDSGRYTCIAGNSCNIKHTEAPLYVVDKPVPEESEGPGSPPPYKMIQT

T2: Human PTK7 Protein, His Tag (Acro Biosystems) (human, UniProt Q13308 31-704)
T2 construct: Bought recombinant protein; also called CCK4; tyrosine-protein kinase-like 7; not shown: His tag
T2 sequence: T1 sequence

B1: MYT10885 (antibody, V domains shown)
VH: EVQLVESGGGLVQPGGSLRLSCTASHFSLSNYVMNWVRQAPGKGLEWVGIIDSSGSTYYASWAKGRFTISRDTSKNTVYLQMNSLRAEDTAVYFCARGLYLWGQGTLVTVSS
VL: EIVMTQSPSTLSASVGDRVIITCQSSQSVYNNNLLAWYQQKPGKAPKLLIYYTSNLASGVPSRFSGSGSGAEFTLTISSLQPDDFATYYCQGGYNGNIYAFGQGTKLTVL
notes: MYT9345 variant, His at VH pos 26 (H1 01)
B2: MYT10902 (antibody, V domains shown)
VH: B1 VH with H26G, T57H
VL: B1 VL
notes: MYT9345 variant, His at VH pos 57 (H2 08)
B3: MYT10900 (antibody, V domains shown)
VH: B1 VH with H26G, G55H
VL: B1 VL
notes: MYT9345 variant, His at VH pos 55 (H2 06)
B4: MYT10893 (antibody, V domains shown)
VH: B1 VH with H26G, M34H
VL: B1 VL
notes: MYT9345 variant, His at VH pos 34 (H1 09)
B5: MYT10890 (antibody, V domains shown)
VH: B1 VH with H26G, N31H
VL: B1 VL
notes: MYT9345 variant, His at VH pos 31 (H1 06)
B6: MYT10908 (antibody, V domains shown)
VH: B1 VH with H26G, A63H
VL: B1 VL
notes: MYT9345 variant, His at VH pos 63 (H2 14)
B7: MYT10886 (antibody, V domains shown)
VH: B1 VH with H26G, F27H
VL: B1 VL
notes: MYT9345 variant, His at VH pos 27 (H1 02)
B8: MYT10906 (antibody, V domains shown)
VH: B1 VH with H26G, S61H
VL: B1 VL
notes: MYT9345 variant, His at VH pos 61 (H2 12)
B9: MYT10887 (antibody, V domains shown)
VH: B1 VH with H26G, S28H
VL: B1 VL
notes: MYT9345 variant, His at VH pos 28 (H1 03)
B10: MYT10907 (antibody, V domains shown)
VH: B1 VH with H26G, W62H
VL: B1 VL
notes: MYT9345 variant, His at VH pos 62 (H2 13)
B11: MYT10904 (antibody, V domains shown)
VH: B1 VH with H26G, Y59H
VL: B1 VL
notes: MYT9345 variant, His at VH pos 59 (H2 10)
B12: MYT10901 (antibody, V domains shown)
VH: B1 VH with H26G, S56H
VL: B1 VL
notes: MYT9345 variant, His at VH pos 56 (H2 07)
B13: MYT10894 (antibody, V domains shown)
VH: B1 VH with H26G, N35H
VL: B1 VL
notes: MYT9345 variant, His at VH pos 35 (H1 10)
B14: MYT11358 (antibody, V domains shown)
VH: EVQLVESGGGLVQPGGSLRLSCTASGIDLSNYAVIWVRQAPGKGLEWVGIIYTYDTTYHANWAKGRFTISRDTSKNTVYLQMNSLRAEDTAVYFCARSFSDISDLIKLWGQGTLVTVSS
VL: EIVMTQSPSTLSASVGDRVIITCQASQSLYNNKDLAWYQQKPGKAPKLLIYEASKLASGVPSRFSGSGSGAEFTLTISSLQPDDFATYYCLGEFSCGSGDCLAFGQGTKLTVL
notes: MYT9797 HC variant; captured via anti-human Fc
B15: MYT11362 (antibody, V domains shown)
VH: B14 VH with H59Y, A63H
VL: B14 VL
notes: as for B14
B16: MYT11402 (antibody, V domains shown)
VH: B14 VH with H59Y
VL: B14 VL with S58H
notes: MYT9797 LC variant; captured via anti-human Fc
B17: MYT11399 (antibody, V domains shown)
VH: B14 VH with H59Y
VL: B14 VL with K55H
notes: as for B16
B18: MYT11377 (antibody, V domains shown)
VH: B14 VH with H59Y, L108H
VL: B14 VL
notes: as for B14
B19: MYT11364 (antibody, V domains shown)
VH: B14 VH with H59Y, G65H
VL: B14 VL
notes: as for B14
B20: MYT11379 (antibody, V domains shown)
VH: B14 VH with D28A, H59Y
VL: B14 VL
notes: MYT9797 HC alanine variant; captured via anti-human Fc
B21: MYT11386 (antibody, V domains shown)
VH: B14 VH with H59Y
VL: B14 VL with Q27H
notes: as for B16
B22: MYT11361 (antibody, V domains shown)
VH: B14 VH with H59Y, W62H
VL: B14 VL
notes: as for B14
B23: MYT11375 (antibody, V domains shown)
VH: B14 VH with H59Y, I106H
VL: B14 VL
notes: as for B14
B24: MYT11385 (antibody, V domains shown)
VH: B14 VH with H59Y
VL: B14 VL with S26H
notes: as for B16
B25: MYT11420 (antibody, V domains shown)
VH: B14 VH with H59Y
VL: B14 VL with D100A
notes: MYT9797 LC alanine variant; captured via anti-human Fc
B26: MYT11403 (antibody, V domains shown)
VH: B14 VH with H59Y
VL: B14 VL with L91H
notes: as for B16
B27: MYT11413 (antibody, V domains shown)
VH: B14 VH with H59Y
VL: B14 VL with A103H
notes: as for B16
B28: MYT11408 (antibody, V domains shown)
VH: B14 VH with H59Y
VL: B14 VL with G97H
notes: as for B16
B29: MYT11366 (antibody, V domains shown)
VH: B14 VH with H59Y, R97H
VL: B14 VL
notes: as for B14
B30: MYT11368 (antibody, V domains shown)
VH: B14 VH with H59Y, F99H
VL: B14 VL
notes: as for B14
B31: MYT11400 (antibody, V domains shown)
VH: B14 VH with H59Y
VL: B14 VL with L56H
notes: as for B16
B32: MYT11414 (antibody, V domains shown)
VH: B14 VH with H59Y
VL: B14 VL with T111E, V112I, L113K
notes: captured via anti-human Fc
B33: MYT11360 (antibody, V domains shown)
VH: B14 VH with H59Y, N61H
VL: B14 VL
notes: as for B14
B34: MYT11419 (antibody, V domains shown)
VH: B14 VH with H59Y
VL: B14 VL with E93A
notes: as for B25
B35: MYT11391 (antibody, V domains shown)
VH: B14 VH with H59Y
VL: B14 VL with N32H
notes: as for B16
B36: MYT11383 (antibody, V domains shown)
VH: B14 VH with H59Y
VL: B14 VL with Q24H
notes: as for B16
B37: MYT11401 (antibody, V domains shown)
VH: B14 VH with H59Y
VL: B14 VL with A57H
notes: as for B16
B38: MYT11359 (antibody, V domains shown)
VH: B14 VH with H59Y, A60H
VL: B14 VL
notes: as for B14
B39: MYT11387 (antibody, V domains shown)
VH: B14 VH with H59Y
VL: B14 VL with S28H
notes: as for B16

target: T1, Human PTK7 Protein, His Tag, Acro …; test: BLI (Octet), antibody on anti-human Fc sensor, 50 nM PTK7 at pH 7.4, dissociation at pH 7.4 or 5.4; 2 = substantially similar binding relative to parent

| binding result | Binder |
| --- | --- |
| binds | B1 |
| binds | B2 |
| binds | B3 |
| binds | B4 |
| binds | B5 |
| binds | B6 |
| binds | B7 |
| binds | B8 |
| binds | B9 |
| binds | B10 |
| binds | B11 |
| binds | B12 |
| binds | B13 |

target: T2, Human PTK7 Protein, His Tag (Acro …); test: BLI, antibody on anti-human Fc sensor, 50 nM PTK7 at pH 7.4, dissociation at pH 7.4 or 5.4; 2 = substantially similar binding relative to parent

| binding result | Binder |
| --- | --- |
| binds | B14 |
| binds | B15 |
| binds | B16 |
| binds | B17 |
| binds | B18 |
| binds | B19 |
| binds | B20 |
| binds | B21 |
| binds | B22 |
| binds | B23 |
| binds | B24 |
| binds | B25 |
| binds | B26 |
| binds | B27 |
| binds | B28 |
| binds | B29 |
| binds | B30 |
| binds | B31 |
| binds | B32 |
| binds | B33 |
| binds | B34 |
| binds | B35 |
| binds | B36 |
| binds | B37 |
| binds | B38 |
| binds | B39 |

— US20260209386A1 (MYTHIC THERAPEUTICS, published 2026)
